Data taken from publication doi:10.1101/322701 (bioRxiv, 2018).

Columns and labels:
Assay in all cases: BLI
[1] = molecular target: N-terminally His-tagged GrgA, full length (Chlamydia trachomatis) (UniProt O84512)
[2] = molecular target: NH-GrgAΔ1-64 (Chlamydia trachomatis) (UniProt O84512)
[3] = molecular target: Biotinylated NH-GrgA (Chlamydia trachomatis) (UniProt O84512)
[4] = molecular target: T1, N-terminally His-tagged GrgA, full length (Chlamydia trachomatis, UniProt O84512 1-288)
T1 sequence (looked up): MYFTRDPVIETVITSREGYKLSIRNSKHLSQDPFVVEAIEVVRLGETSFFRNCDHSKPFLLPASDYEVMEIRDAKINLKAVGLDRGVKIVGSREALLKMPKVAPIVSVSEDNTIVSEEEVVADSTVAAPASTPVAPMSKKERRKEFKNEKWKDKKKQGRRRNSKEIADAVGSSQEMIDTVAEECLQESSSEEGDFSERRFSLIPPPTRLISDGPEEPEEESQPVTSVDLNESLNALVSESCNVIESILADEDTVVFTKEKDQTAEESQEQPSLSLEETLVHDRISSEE

[5] = molecular target: N-terminally poly-His-tagged C. trachomatis σ^28 (C. trachomatis)
Chain of N-terminally poly-His-tagged C. trachomatis σ^28 (C. trachomatis) (B0B8K1 whole entry): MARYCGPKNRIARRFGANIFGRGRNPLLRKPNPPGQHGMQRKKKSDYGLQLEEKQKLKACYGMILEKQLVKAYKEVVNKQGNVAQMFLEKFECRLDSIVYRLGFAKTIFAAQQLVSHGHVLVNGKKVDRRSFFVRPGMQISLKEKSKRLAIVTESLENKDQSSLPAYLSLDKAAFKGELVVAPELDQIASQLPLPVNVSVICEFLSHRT

CH-σ^66 = molecular target: T2, CH-σ^66 (C. trachomatis, UniProt P18333 1-571)
T2 sequence (looked up): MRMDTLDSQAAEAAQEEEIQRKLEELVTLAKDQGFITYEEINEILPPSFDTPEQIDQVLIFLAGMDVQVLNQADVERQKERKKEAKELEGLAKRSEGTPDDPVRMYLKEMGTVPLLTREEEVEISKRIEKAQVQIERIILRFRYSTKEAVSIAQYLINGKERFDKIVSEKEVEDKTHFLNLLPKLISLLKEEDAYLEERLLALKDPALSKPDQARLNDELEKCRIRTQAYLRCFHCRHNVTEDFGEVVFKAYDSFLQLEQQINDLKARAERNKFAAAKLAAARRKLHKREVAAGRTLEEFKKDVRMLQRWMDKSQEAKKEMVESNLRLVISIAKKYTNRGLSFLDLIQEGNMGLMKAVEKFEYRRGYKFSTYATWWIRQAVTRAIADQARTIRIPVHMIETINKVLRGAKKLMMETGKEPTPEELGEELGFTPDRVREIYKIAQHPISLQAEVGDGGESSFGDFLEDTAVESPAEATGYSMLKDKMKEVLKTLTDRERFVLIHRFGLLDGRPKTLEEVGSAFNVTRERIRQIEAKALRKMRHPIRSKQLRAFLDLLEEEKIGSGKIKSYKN

## N-terminally strep-tagged σ^28 (natural protein)
[1]
  fold higher KD than the NH-GrgA-CS-σ^66 interaction: 32 fold
[2]
  fold decrease in ka against full length NH-GrgA: 3 fold
  fold increase in KD against full length NH-GrgA: 4.8 fold
  fold increase in kd against full length NH-GrgA: 2 fold

## NH-σ^28ΔR3 (natural protein)
[3]
  fold higher KD than full length NH-σ^28: 7 fold
  fold increase in ka against full length NH-σ^28: 3.5 fold

## NH-σ^28ΔR4 (natural protein)
[3]
  fold higher KD than full length NH-σ^28: 7 fold
  percent increase in ka against full length NH-σ^28: 50%

## NH-σ^28ΔR2 (natural protein)
[3]
  fold higher KD than full length NH-σ^28: 177 fold
  fold reduction in ka against full length NH-σ^28: 2 fold

## NH-σ^28ΔNL (domain or fragment)
[3]
  fold higher KD than full length NH-σ^28: 345 fold

B1: CS-σ^66 (natural protein, C. trachomatis, UniProt P18333 1-571, looked up)
chain: MRMDTLDSQAAEAAQEEEIQRKLEELVTLAKDQGFITYEEINEILPPSFDTPEQIDQVLIFLAGMDVQVLNQADVERQKERKKEAKELEGLAKRSEGTPDDPVRMYLKEMGTVPLLTREEEVEISKRIEKAQVQIERIILRFRYSTKEAVSIAQYLINGKERFDKIVSEKEVEDKTHFLNLLPKLISLLKEEDAYLEERLLALKDPALSKPDQARLNDELEKCRIRTQAYLRCFHCRHNVTEDFGEVVFKAYDSFLQLEQQINDLKARAERNKFAAAKLAAARRKLHKREVAAGRTLEEFKKDVRMLQRWMDKSQEAKKEMVESNLRLVISIAKKYTNRGLSFLDLIQEGNMGLMKAVEKFEYRRGYKFSTYATWWIRQAVTRAIADQARTIRIPVHMIETINKVLRGAKKLMMETGKEPTPEELGEELGFTPDRVREIYKIAQHPISLQAEVGDGGESSFGDFLEDTAVESPAEATGYSMLKDKMKEVLKTLTDRERFVLIHRFGLLDGRPKTLEEVGSAFNVTRERIRQIEAKALRKMRHPIRSKQLRAFLDLLEEEKIGSGKIKSYKN
[4]
  fold higher ka than the NS-σ^28 analyte on NH-GrgA: 25 fold
  fold increase in kd over the NS-σ^28 analyte on NH-GrgA: 3 fold

B2: N-terminally strep-tagged GrgA (natural protein, Chlamydia trachomatis, UniProt O84512 1-288, looked up)
chain: MYFTRDPVIETVITSREGYKLSIRNSKHLSQDPFVVEAIEVVRLGETSFFRNCDHSKPFLLPASDYEVMEIRDAKINLKAVGLDRGVKIVGSREALLKMPKVAPIVSVSEDNTIVSEEEVVADSTVAAPASTPVAPMSKKERRKEFKNEKWKDKKKQGRRRNSKEIADAVGSSQEMIDTVAEECLQESSSEEGDFSERRFSLIPPPTRLISDGPEEPEEESQPVTSVDLNESLNALVSESCNVIESILADEDTVVFTKEKDQTAEESQEQPSLSLEETLVHDRISSEE
[5]
  fold higher KD than the CH-σ^66-NS-GrgA interaction: 28 fold
CH-σ^66
  fold higher ka than for NH-σ^28 as ligand: 3.7 fold
  fold slower dissociation (kd) than from NH-σ^28: 6 fold
